Measured values reported in publication PMC5070119, “Oligomeric interface modulation causes misregulation of purine 5´-nucleotidase in relapsed leukemia” (BMC Biology, 2016).

Biological target: the molecule itself
Test: SEC; Superdex 200 10/300 GL, 50 mM sodium phosphate pH 7.4, 100 mM NaCl, 2 mM TCEP; 200 ul of 0.5 mg/ml protein; calibrated with high molecular weight standards

Protein | stoichiometry N
cytosolic purine 5'-nucleotidase (cN-II), full-length wild type (enzyme, human, UniProt P49902 1-561, looked up, cytosolic purine 5'-nucleotidase (cN-II), human, EC 3.1.3.5, 561 residues; full length made by ligating a synthetic C-terminal tail into the truncated construct; Homotetramer; also called wild-type cN-II; NT5C2 product) MSTSWSDRLQNAADMPANMDKHALKKYRREAYHRVFVNRSLAMEKIKCFGFDMDYTLAVYKSPEYESLGFELTVERLVSIGYPQELLSFAYDSTFPTRGLVFDTLYGNLLKVDAYGNLLVCAHGFNFIRGPETREQYPNKFIQRDDTERFYILNTLFNLPETYLLACLVDFFTNCPRYTSCETGFKDGDLFMSYRSMFQDVRDAVDWVHYKGSLKEKTVENLEKYVVKDGKLPLLLSRMKEVGKVFLATNSDYKYTDKIMTYLFDFPHGPKPGSSHRPWQSYFDLILVDARKPLFFGEGTVLRQVDTKTGKLKIGTYTGPLQHGIVYSGGSSDTICDLLGAKGKDILYIGDHIFGDILKSKKRQGWRTFLVIPELAQELHVWTDKSSLFEELQSLDIFLAELYKHLDSSSNERPDISSIQRRIKKVTHDMDMCYGMMGSLFRSGSRQTLFASQVMRYADLYAASFINLLYYPFSYLFRAAHVLMPHESTVEHTHVDINEMESPLATRNRTSVDFKDTDYKRHQLTRSISEIKPPNLFPLAPQEITHCHDEDDDEEEEEEEE | 4
cytosolic purine 5'-nucleotidase (cN-II) R367Q, full-length (enzyme, human, UniProt P49902 1-561, looked up, cytosolic purine 5'-nucleotidase (cN-II), human, 561 residues, with the relapsed-ALL somatic mutation R367Q; Mutation found in patients with relapsed ALL; Homotetramer; also called R367Q mutant) MSTSWSDRLQNAADMPANMDKHALKKYRREAYHRVFVNRSLAMEKIKCFGFDMDYTLAVYKSPEYESLGFELTVERLVSIGYPQELLSFAYDSTFPTRGLVFDTLYGNLLKVDAYGNLLVCAHGFNFIRGPETREQYPNKFIQRDDTERFYILNTLFNLPETYLLACLVDFFTNCPRYTSCETGFKDGDLFMSYRSMFQDVRDAVDWVHYKGSLKEKTVENLEKYVVKDGKLPLLLSRMKEVGKVFLATNSDYKYTDKIMTYLFDFPHGPKPGSSHRPWQSYFDLILVDARKPLFFGEGTVLRQVDTKTGKLKIGTYTGPLQHGIVYSGGSSDTICDLLGAKGKDILYIGDHIFGDILKSKKRQGWQTFLVIPELAQELHVWTDKSSLFEELQSLDIFLAELYKHLDSSSNERPDISSIQRRIKKVTHDMDMCYGMMGSLFRSGSRQTLFASQVMRYADLYAASFINLLYYPFSYLFRAAHVLMPHESTVEHTHVDINEMESPLATRNRTSVDFKDTDYKRHQLTRSISEIKPPNLFPLAPQEITHCHDEDDDEEEEEEEE | 4
cytosolic purine 5'-nucleotidase (cN-II) R238W, full-length (enzyme, human, UniProt P49902 1-561, looked up, cytosolic purine 5'-nucleotidase (cN-II), human, 561 residues, with the relapsed-ALL somatic mutation R238W; Mutation found in patients with relapsed ALL; Homotetramer; also called R238W mutant) MSTSWSDRLQNAADMPANMDKHALKKYRREAYHRVFVNRSLAMEKIKCFGFDMDYTLAVYKSPEYESLGFELTVERLVSIGYPQELLSFAYDSTFPTRGLVFDTLYGNLLKVDAYGNLLVCAHGFNFIRGPETREQYPNKFIQRDDTERFYILNTLFNLPETYLLACLVDFFTNCPRYTSCETGFKDGDLFMSYRSMFQDVRDAVDWVHYKGSLKEKTVENLEKYVVKDGKLPLLLSWMKEVGKVFLATNSDYKYTDKIMTYLFDFPHGPKPGSSHRPWQSYFDLILVDARKPLFFGEGTVLRQVDTKTGKLKIGTYTGPLQHGIVYSGGSSDTICDLLGAKGKDILYIGDHIFGDILKSKKRQGWRTFLVIPELAQELHVWTDKSSLFEELQSLDIFLAELYKHLDSSSNERPDISSIQRRIKKVTHDMDMCYGMMGSLFRSGSRQTLFASQVMRYADLYAASFINLLYYPFSYLFRAAHVLMPHESTVEHTHVDINEMESPLATRNRTSVDFKDTDYKRHQLTRSISEIKPPNLFPLAPQEITHCHDEDDDEEEEEEEE | 4
cytosolic purine 5'-nucleotidase (cN-II) L375F, full-length (enzyme, human, UniProt P49902 1-561, looked up, cytosolic purine 5'-nucleotidase (cN-II), human, 561 residues, with the relapsed-ALL somatic mutation L375F; Mutation found in patients with relapsed ALL; Homotetramer; also called L375F mutant) MSTSWSDRLQNAADMPANMDKHALKKYRREAYHRVFVNRSLAMEKIKCFGFDMDYTLAVYKSPEYESLGFELTVERLVSIGYPQELLSFAYDSTFPTRGLVFDTLYGNLLKVDAYGNLLVCAHGFNFIRGPETREQYPNKFIQRDDTERFYILNTLFNLPETYLLACLVDFFTNCPRYTSCETGFKDGDLFMSYRSMFQDVRDAVDWVHYKGSLKEKTVENLEKYVVKDGKLPLLLSRMKEVGKVFLATNSDYKYTDKIMTYLFDFPHGPKPGSSHRPWQSYFDLILVDARKPLFFGEGTVLRQVDTKTGKLKIGTYTGPLQHGIVYSGGSSDTICDLLGAKGKDILYIGDHIFGDILKSKKRQGWRTFLVIPEFAQELHVWTDKSSLFEELQSLDIFLAELYKHLDSSSNERPDISSIQRRIKKVTHDMDMCYGMMGSLFRSGSRQTLFASQVMRYADLYAASFINLLYYPFSYLFRAAHVLMPHESTVEHTHVDINEMESPLATRNRTSVDFKDTDYKRHQLTRSISEIKPPNLFPLAPQEITHCHDEDDDEEEEEEEE | 4
